Assay results taken from the supplement of paper PMC10899765.

Legend:
Settings in all cases: 20 nM; 72 h
[1] = system: MCF10A; test: one-nucleolus phenotype percent effect (relative to siNT 0% and siNOL11 100%); higher = more cells with one nucleolus (ribosome biogenesis inhibition)
Description: (§1)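 After 72 h, cells were fixed and stained with Hoechst and anti-fibrillarin, and nucleoli per nucleus were counted with CellProfiler. Values are plate-adjusted percent effect for the one-nucleolus and 5+ nucleoli phenotypes, normalised to siNT (0%) and to the positive controls siNOL11 or siKIF11 (100%), as the mean of biological triplicates. Percent viability is the nuclei count relative to siNT.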

[2] = system: MCF10A; test: percent viability (nuclei count relative to siNT); higher = more viable cells
Description: as §1

[3] = system: MCF10A; test: 5+ nucleoli phenotype percent effect (relative to siNT 0% and siKIF11 100%); higher = more cells with five or more nucleoli
Description: as §1

Row | Sequence | one-nucleolus phenotype percent effect [1] [%] | percent viability [2] [%] | 5+ nucleoli phenotype percent effect [3] [%]
1 | AAAAGUAAUUGCGGGUUUUGCC [hsa-miR-548as-5p] | -24.9 | 160 | 35.9
2 | GGUCCAGAGGGGAGAUAGGUUC [hsa-miR-198] | -9.26 | 51.6 | 5.19
3 | UUUCUAUGUUAGUUGGAAG [hsa-miR-7159-3p] | 5.4 | 26.4 | 0.357
4 | ACUGUAGUAUGGGCACUUCCAG [hsa-miR-20b-3p] | 1.32 | 74 | -11.6
5 | CGCCUCUUCAGCGCUGUCUUCC [hsa-miR-2682-3p] | -7.1 | 75.9 | 24
6 | ACUCGGCUGCGGUGGACAAGU [hsa-miR-4638-5p] | 3.97 | 39.5 | -4.89
7 | GUGGGGCCAGGCGGUGG [hsa-miR-1227-5p] | -31 | 78.5 | 55.1
8 | UUGCCAUACAUAGACUUUAUU [hsa-miR-5590-5p] | 33.6 | 44.8 | -33.2
9 | ACUGGCUAGGGAAAAUGAUUGGAU [hsa-miR-664a-5p] | 16.3 | 47.9 | 8.84
10 | UGCCUCCCUGACAUUCCACAG [hsa-miR-6778-3p] | 10.1 | 7.57 | -21
11 | CUGGGAGGUGUGAUAUUGUGGU [hsa-miR-3689c] | 44 | 9.66 | -32.9
12 | AUAAGACGAGCAAAAAGCUUGU [hsa-miR-208a] | -6.61 | 100 | 14.9
13 | CCUCUUCCCCUUGUCUCUCCAG [hsa-miR-1236-3p] | -6.25 | 76.4 | 14.8
14 | GGUUCUUAGCAUAGGAGGUCU [hsa-miR-2116-5p] | 12.8 | 35.2 | -5.52
15 | GAGAAAUGCUGGACUAAUCUGC [hsa-miR-5680] | -20.6 | 93.7 | 27.3
16 | GCCCAAAGGUGAAUUUUUUGGG [hsa-miR-186-3p] | -20.2 | 176 | 26.4
17 | ACAGGGCCGCAGAUGGAGACU [hsa-miR-3918] | 50.3 | 8.55 | -31.2
18 | UUCAACAAGGGUGUAGGAUGG [hsa-miR-7159-5p] | -19.4 | 105 | 14.1
19 | UGUGGGUUCUGGGUUGGGGUGA [hsa-miR-6793-5p] | 30.2 | 14.3 | -24.1
20 | UGAGCCCCUGUGCCGCCCCCAG [hsa-miR-1225-3p] | -16.7 | 98.1 | 19.9
21 | UAUCAUGGAGUUGGUAAAGCAC [hsa-miR-2681-3p] | -14.9 | 62.4 | 14.2
22 | ACAUUGCCAGGGAGUUU [hsa-miR-4317] | -2.43 | 45.1 | -11
23 | UUUAGAGACGGGGUCUUGCUCU [hsa-miR-1303] | -10.2 | 71.3 | 17.6
24 | UCCUGCGUAGGAUCUGAGGAGU [hsa-miR-3193] | -18.1 | 58.9 | 10.1
25 | CCACCAGGUCUAGCAUUGGGAU [hsa-miR-4733-3p] | 12.6 | 29.8 | -9.32
